In patent US20220396635A1 (UNIVERSIT T STUTTGART, published 2022):

T1: CEA (UniProt P06731 35-685)
T1 construct: whole, on cells
T1 sequence (looked up): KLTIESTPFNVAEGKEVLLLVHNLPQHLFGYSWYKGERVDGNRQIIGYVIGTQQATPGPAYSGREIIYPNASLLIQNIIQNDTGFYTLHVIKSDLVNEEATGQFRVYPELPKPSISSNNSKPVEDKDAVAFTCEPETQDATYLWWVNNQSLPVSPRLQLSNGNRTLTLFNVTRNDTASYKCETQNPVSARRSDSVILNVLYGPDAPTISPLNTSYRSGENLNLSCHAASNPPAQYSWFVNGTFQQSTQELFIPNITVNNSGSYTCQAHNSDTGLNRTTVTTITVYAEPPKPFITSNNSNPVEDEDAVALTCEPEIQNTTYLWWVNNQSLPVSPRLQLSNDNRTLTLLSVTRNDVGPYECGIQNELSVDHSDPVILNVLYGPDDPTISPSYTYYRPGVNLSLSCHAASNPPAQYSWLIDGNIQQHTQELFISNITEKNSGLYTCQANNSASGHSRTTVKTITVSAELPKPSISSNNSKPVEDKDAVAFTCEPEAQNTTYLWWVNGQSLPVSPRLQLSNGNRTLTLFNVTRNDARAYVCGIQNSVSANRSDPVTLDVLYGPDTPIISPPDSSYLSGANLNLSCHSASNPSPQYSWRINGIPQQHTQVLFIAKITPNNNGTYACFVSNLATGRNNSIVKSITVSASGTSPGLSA

B1: scDb/scFv-Fc (1-1)+2, trivalent bispecific anti-CEAxanti-CD3 (bispecific antibody)
chain 1: QVKLQQSGAELVRSGTSVKLSCTASGFNIKDSYMHWLRQGPEQGLEWIGWIDPENGDTEYAPKFQGKATFTTDTSSNTAYLQLSSLTSEDTAVYYCNEGTPTGPYYFDYWGQGTTVTVSSGGGGSDIELTQSPAIMSASPGEKVTITCSASSSVSYMHWFQQKPGTSPKLWIYSTSNLASGVPARFSGSGSGTSYSLTISRMEAEDAATYYCQQRSSYPLTFGAGTKLELKRGGGGSGGGGSGGGGSQVKLQQSGAELVRSGTSVKLSCTASGFNIKDSYMHWLRQGPEQGLEWIGWIDPENGDTEYAPKFQGKATFTTDTSSNTAYLQLSSLTSEDTAVYYCNEGTPTGPYYFDYWGQGTTVTVSSGGGGSDIELTQSPAIMSASPGEKVTITCSASSSVSYMHWFQQKPGTSPKLWIYSTSNLASGVPARFSGSGSGTSYSLTISRMEAEDAATYYCQQRSSYPLTFGAGTKLELKRAAADKTHTCPPCPAPPVAGPSVFLFPPKPKDTLMISRTPEVTCVVVDVSHEDPEVKFNWYVDGVEVHNAKTKPREEQYNSTYRVVSVLTVLHQDWLNGKEYKCKVSNKGLPSSIEKTISKAKGQPREPQVCTLPPSRDELTKNQVSLSCAVKGFYPSDIAVEWESNGQPENNYKTTPPVLDSDGSFFLVSKLTVDKSRWQQGNVFSCSVMHEALHNHYTQKSLSLSPGK
chain 2: DIQMTQSPSSLSASVGDRVTITCRASQDIRNYLNWYQQKPGKAPKLLIYYTSRLHSGVPSRFSGSGSGTDFTFTISSLQPEDIATYYCQQGNTLPWTFGQGTKLEIKRGGGGSGGGGSGGGGSQVQLVQSGAEVKKPGSSVKVSCKASGGTFSGYTMNWVRQAPGQGLEWMGLINPYKGVSTYNGKFKDRVTITADKSTSTAYMELSSLRSEDTAVYYCARSGYYGDSDWYFDVWGQGTLVTVSSAAADKTHTCPPCPAPPVAGPSVFLFPPKPKDTLMISRTPEVTCVVVDVSHEDPEVKFNWYVDGVEVHNAKTKPREEQYNSTYRVVSVLTVLHQDWLNGKEYKCKVSNKGLPSSIEKTISKAKGQPREPQVYTLPPCRDELTKNQVSLWCLVKGFYPSDIAVEWESNGQPENNYKTTPPVLDSDGSFFLYSKLTVDKSRWQQGNVFSCSVMHEALHNHYTQKSLSLSPGK
notes: also called scDbCEAxCEA-Fc(hole)Δab + scFvhuU3-Fc(knob)Δab
B2: scDb/Fab-Fc (1-1)+2, trivalent bispecific anti-EGFRxanti-CD3 (bispecific antibody)
chain: EVQLVESGGGLVQPGGSLRLSCAASGFSLTNYGVHWVRQAPGKGLEWLGVIWSGGNTDYNTPFTSRFTISRDNSKNTLYLQMNSLRAEDTAVYYCARALTYYDYEFAYWGQGTTVTVSSGGGGSDIQLTQSPSFLSASVGDRVTITCRASQSIGTNIHWYQQKPGKAPKLLIKYASESISGVPSRFSGSGSGTEFTLTISSLQPEDFATYYCQQNNNWPTTFGAGTKLEIKRGGGGSGGGGSGGGGSEVQLVESGGGLVQPGGSLRLSCAASGFSLTNYGVHWVRQAPGKGLEWLGVIWSGGNTDYNTPFTSRFTISRDNSKNTLYLQMNSLRAEDTAVYYCARALTYYDYEFAYWGQGTTVTVSSGGGGSDIQLTQSPSFLSASVGDRVTITCRASQSIGTNIHWYQQKPGKAPKLLIKYASESISGVPSRFSGSGSGTEFTLTISSLQPEDFATYYCQQNNNWPTTFGAGTKLEIKRAAADKTHTCPPCPAPPVAGPSVFLFPPKPKDTLMISRTPEVTCVVVDVSHEDPEVKFNWYVDGVEVHNAKTKPREEQYNSTYRVVSVLTVLHQDWLNGKEYKCKVSNKGLPSSIEKTISKAKGQPREPQVCTLPPSRDELTKNQVSLSCAVKGFYPSDIAVEWESNGQPENNYKTTPPVLDSDGSFFLVSKLTVDKSRWQQGNVFSCSVMHEALHNHYTQKSLSLSPGK
heavy: QVQLVQSGAEVKKPGSSVKVSCKASGGTFSGYTMNWVRQAPGQGLEWMGLINPYKGVSTYNGKFKDRVTITADKSTSTAYMELSSLRSEDTAVYYCARSGYYGDSDWYFDVWGQGTLVTVSSASTKGPSVFPLAPSSKSTSGGTAALGCLVKDYFPEPVTVSWNSGALTSGVHTFPAVLQSSGLYSLSSVVTVPSSSLGTQTYICNVNHKPSNTKVDKKVEPKSCDKTHTCPPCPAPPVAGPSVFLFPPKPKDTLMISRTPEVTCVVVDVSHEDPEVKFNWYVDGVEVHNAKTKPREEQYNSTYRVVSVLTVLHQDWLNGKEYKCKVSNKGLPSSIEKTISKAKGQPREPQVYTLPPCRDELTKNQVSLWCLVKGFYPSDIAVEWESNGQPENNYKTTPPVLDSDGSFFLYSKLTVDKSRWQQGNVFSCSVMHEALHNHYTQKSLSLSPGK
light: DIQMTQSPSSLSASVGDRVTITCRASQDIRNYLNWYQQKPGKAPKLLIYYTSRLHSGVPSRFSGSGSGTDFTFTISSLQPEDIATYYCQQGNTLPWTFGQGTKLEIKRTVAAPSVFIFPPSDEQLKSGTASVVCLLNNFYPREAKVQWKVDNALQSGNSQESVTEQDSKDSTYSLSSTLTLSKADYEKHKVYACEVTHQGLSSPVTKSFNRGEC
B3: scDb/Fab-Fc (1-1)+2, trivalent bispecific anti-CEAxanti-CD3 (bispecific antibody)
chain: B1 chain 1
heavy: B2 heavy
light: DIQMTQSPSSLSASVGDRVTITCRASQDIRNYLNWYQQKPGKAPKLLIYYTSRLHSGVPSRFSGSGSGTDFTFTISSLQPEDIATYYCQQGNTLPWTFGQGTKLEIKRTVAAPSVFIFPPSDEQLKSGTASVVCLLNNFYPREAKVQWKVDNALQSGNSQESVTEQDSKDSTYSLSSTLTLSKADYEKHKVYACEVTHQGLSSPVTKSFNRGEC
notes: also called scDbCEAxCEA-Fc(hole)Δab + FdhuU3-Fc(knob)Δab + VLhuU3-CLK
B4: scDb/scFv-Fc (1-1)+2, trivalent bispecific anti-EGFRxanti-CD3 (bispecific antibody)
chain 1: B2 chain
chain 2: B1 chain 2
notes: also called scDbhu225xhu225-Fc(hole)Δab + scFvhuU3-Fc(knob)Δab

Assays:
CEA = biological target: T1, CEA; experiment: flow cytometry, serial dilution on LIM1215 cells (CEA-expressing), PE anti-human Fc detection
Protocol: (§1) Binding of trivalent, bispecific fusion proteins to CEA-expressing (LIM1215) and CD3-expressing (Jurkat) cell lines was analyzed by flow cytometry. 2×10⁵ cells/well were incubated with a serial dilution of trivalent, bispecific antibodies for 1 h at 4° C. followed by detection using a PE-conjugated anti-human Fc antibody (Jackson ImmunoResearch Laboratories Inc). […] Regarding the CEA-expressing cell line LIM1215, the trivalent, bispecific antibodies bound with EC₅₀ values in the nanomolar range (FIG. 16A) (Table 9).

CD3 = biological target: T2, CD3 (UniProt P07766 23-207); experiment: flow cytometry, serial dilution on Jurkat cells (CD3-expressing), PE anti-human Fc detection
T2 construct: whole, on cells; on cells it stands in the TCR/CD3 complex; also called CD3 on Jurkat cells
Protocol: as §1

EGFR [1] = biological target: T3, EGFR (UniProt P00533 25-1210, limits assumed); experiment: flow cytometry, serial dilution on SKBR-3 cells (EGFR-expressing), PE anti-human Fc detection
T3 construct: whole, on cells; the cell lines are human tumor lines
Protocol: (§2) Binding analysis of the trivalent, bispecific antibodies was performed by flow cytometry using tumor cell lines with different EGFR-expression levels (FIG. 20) (Table 12). Adherent cells were washed with PBS and shortly trypsinized at 37° C. Trypsin was quenched with FCS-containing medium and removed by centrifugation (500×g, 5 min.). Target cells (FaDu, LIM1215, SKBR-3, T-47-D, MCF-7 and Jurkat cells) at 1×10⁵ cells/well were incubated with a serial dilution of trivalent, bispecific antibodies for 1 h at 4° C. After removing excess of recombinant protein by washing with PBA (PBS, 2% FBS, and 0.02% sodium azide), bound protein was detected using PE-conjugated anti-human Fc mAb (Jackson ImmunoResearch Laboratories Inc). Fluorescence was measured using MACSquant VYB (Miltenyi Biotec) and data were analyzed using FlowJo (Tree Star). Relative median fluorescence intensities (MFI) were calculated as followed: relative MFI=((MFIₛₐₘₚₗₑ-(MFIdetection-MFIcells))/MFIcells).

EGFR [2] = biological target: T3, EGFR; experiment: flow cytometry, serial dilution on LIM1215 cells (EGFR-expressing), PE anti-human Fc detection
Protocol: as §2

EGFR [3] = biological target: T3, EGFR; experiment: flow cytometry, serial dilution on T-47-D cells (EGFR-expressing), PE anti-human Fc detection
Protocol: as §2

EGFR [4] = biological target: T3, EGFR; experiment: flow cytometry, serial dilution on FaDu cells (EGFR-expressing), PE anti-human Fc detection
Protocol: as §2

EGFR [5] = biological target: T3, EGFR; experiment: flow cytometry, serial dilution on MCF-7 cells (EGFR-expressing), PE anti-human Fc detection
Protocol: as §2

Binder | EC50 (CEA) [nM] | EC50 (CD3) [nM] | EC50 (EGFR [1]) [nM] | EC50 (EGFR [2]) [nM] | EC50 (EGFR [3]) [nM] | EC50 (EGFR [4]) [nM] | EC50 (EGFR [5]) [nM]
B1 | 2.4 | 2.8 | – | – | – | – | –
B2 | – | – | 0.8 | 2.6 | 0.2 | 3.6 | 0.5
B3 | 8.5 | 0.8 | – | – | – | – | –
B4 | – | – | 2.8 | 4 | 0.4 | 8.9 | 0.8
